Data from patent EP4725966A1, “HUMAN EPIDERMAL GROWTH FACTOR 3 ANTIBODY, PREPARATION METHOD THEREFOR, AND USE THEREOF” (priority 2023, dated 2024).

Legend:
[1] = tested on: human HER3-overexpressing JIMT-1 cells; assay: ADC cytotoxicity; format: cell-based; settings: FIG. 13
Description: (§1) A375 and OVCAR3 cells were seeded in 96-well plates at 5,000 cells per well, and gradient-diluted ADCs (cHE4-G1W-DXd, cHE5-G1W-DXd, cHE7-G1W-DXd, patritumab-DXd, and IgG-DXd) were added. After incubation at 37°C for 5 days, cell viability was measured using CellTiter-Glo (Promega) to evaluate cytotoxicity of the ADCs.
(§2) The cytotoxicity of antibody-drug conjugates based on hHE4-G1W against HER3-expressing HCC1569, A375, and JIMT-1 tumor cells was tested. Antibody-drug conjugates were prepared as described in Example 11. Hydrophobic interaction chromatography indicated the antibody-to-Dxd ratios for cHE4-G1W-DXd, hHE4-G1W-DXd, patritumab-DXd, and negative control IgG-DXd were 1:7, 1:8, 1:7.8, and 1:8, respectively.

[2] = tested on: HER3-expressing HCC1569 cells; assay: ADC cytotoxicity; format: cell-based; settings: FIG. 13
Description: as §1, §2

[3] = tested on: A375 cells overexpressing human HER3; assay: ADC cytotoxicity, CellTiter-Glo; format: cell-based; settings: Example 21, FIG. 13
[4] = tested on: HER3-overexpressing A375 cells; assay: Cell imaging of internalization; format: cell-based; settings: 100 nM, FIG. 11
Description: A cell imaging microplate detection system was used to monitor the internalization of hHE4-G1W, hHE4-G1W-DXd, patritumab, and patritumab-DXd after binding to HER3 on the surface of A375 tumor cells. hHE4-G1W, hHE4-G1W-DXd, patritumab, and patritumab-DXd (each 100 nM) were incubated with HER3-overexpressing A375 cells at 4°C for 30 minutes, respectively. Unbound antibodies were removed by washing, and PE-labeled goat anti-human Fc secondary antibody (Jackson) was added. The mixture was incubated at 4°C for 30 minutes, and then the unbound secondary antibody was removed by washing. When the antibodies were bound to the surface of A375 cells and had not yet undergone internalization, these samples were designated as the 0h samples. Fluorescence images were acquired using a Biotek Cytation 1 imaging reader. Cells were then incubated at 37°C for 3 hours and imaged again.

SW620 tumor = assay: Tumor inhibition in SW620 tumor-bearing mice; format: in vivo, Female SCID mice; settings: for tumor growth: single dose, FIG. 14
Description: (§3) The anti-tumor efficacy of hHE4-G1W-DXd and cHE5-G1W-DXd was evaluated in SW620 tumor-bearing mice. Female SCID mice were subcutaneously injected with SW620 cells in the dorsal region to establish the xenograft model. After tumor establishment, mice were randomly divided into nine groups and treated with a single dose. Three groups served as negative controls: one group received PBS, and two groups received IgG-DXd at low dose (3 mg/kg) and high dose (6 mg/kg), respectively. Experimental groups were administered with hHE4-G1W-DXd, cHE5-G1W-DXd, or patritumab-DXd at 3 mg/kg or 6 mg/kg. The average Dxd-to-antibody ratio was 8. Mouse body weights and tumor volumes were measured.

DiFi tumor = assay: Tumor inhibition in DiFi tumor-bearing mice; format: in vivo, Female SCID mice
Description: as §3, with “DiFi” for “SW620”, “once per week for three weeks.” for “with a single dose.”

B1: hHE4-G1W-DXd (conjugate)
heavy: QVQLVESGGGLVKPGGSLRLSCAASGFTFSSYVMSWVRQAPGKGLEWVATISDGDSSTYYADSVKGRFTISRDNAKNSLYLQMNSLRAEDTAVYYCARDKGHGYDEGAFVYWGQGTLVTVSS
light: DIQMTQSPSSLSASVGDRVTITCRASENIYSYLAWYQQKPGKAPKLLIYNAKTLAEGVPSRFSGSGSGTDFTLTISSLQPEDFATYYCQNHYGTPYTFGQGTKLEIKR
modifications: left off: a dimerising Fc or GST
[1]
  cytotoxicity against JIMT-1 cells: significant cytotoxicity
[1]; JIMT-1 cells
  cytotoxicity compared with patritumab-DXd: superior cytotoxicity compared with patritumab-DXd
[2]
  cytotoxicity against HCC1569 cells: significant cytotoxicity
[3]
  cytotoxicity against A375 cells: significant cytotoxicity
[4]; 0 hour
  binding to HER3 on the surface of A375 cells: bound to HER3 expressed on the cell surface
[4]; after 3 hours at 37°C
  internalization into A375 cells: internalized into the A375 cells
SW620 tumor; 3 mg/kg
  tumor growth: prevented tumor growth
SW620 tumor; 6 mg/kg
  tumor growth: complete tumor regression in one mouse
SW620 tumor; overall conclusion, SW620
  tumor inhibition compared with patritumab-DXd: superior tumor inhibition against SW620 tumor compared with patritumab-DXd
DiFi tumor; low dose of 3 mg/kg, once per week for three weeks
  tumor inhibition compared with patritumab-DXd: superior tumor inhibition compared with patritumab-DXd
DiFi tumor; overall conclusion, DiFi
  tumor inhibition compared with patritumab-DXd: equivalent or improved tumor inhibition against DiFi tumors compared with patritumab-DXd
